From patent publication US20230220042A1 (SHANGHAI JIAO TONG UNIVERSITY SCHOOL OF MEDICINE, published 2023)

T1: Biotin-FcγRIIB (human FcγRIIB, Sino Biological) (human, UniProt P31994 43-217, limits assumed, biotin-labeled)
T1 construct: Used at 1 µg/ml with Streptavidin-APC for flow cytometry and sorting; also called CD32b
T1 sequence (looked up): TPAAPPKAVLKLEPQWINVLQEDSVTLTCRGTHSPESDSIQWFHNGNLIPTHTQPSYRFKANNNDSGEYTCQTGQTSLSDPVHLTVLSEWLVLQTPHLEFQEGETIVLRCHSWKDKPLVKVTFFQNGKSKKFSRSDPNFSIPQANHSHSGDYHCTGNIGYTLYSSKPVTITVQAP

T2: Biotin-FcγRIIB (human, UniProt P31994 43-217, limits assumed, biotin label)
T2 construct: Soluble labelled protein used to stain and sort the display cells; also called human FcγRIIB; CD32b
T2 sequence (looked up): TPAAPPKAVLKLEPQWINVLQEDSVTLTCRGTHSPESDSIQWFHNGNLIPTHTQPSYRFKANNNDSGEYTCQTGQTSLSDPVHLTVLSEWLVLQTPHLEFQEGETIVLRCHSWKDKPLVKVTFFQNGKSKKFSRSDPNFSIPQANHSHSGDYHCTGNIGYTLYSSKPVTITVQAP


Tests used:
[1] = target: Biotin-FcγRIIB (human) (UniProt P31994); assay: NGS of 3T3 display library Cmix flow-sorted for FcγRIIB binding
[2] = target: T1, Biotin-FcγRIIB (human FcγRIIB, Sino …); assay: NGS after FACS sort of 3T3-displayed Library4 for biotin-FcγRIIB binding
[3] = target: T2, Biotin-FcγRIIB; assay: NGS of 3T3 display library IgG2_C01 flow-sorted for FcγRIIB binding
Text: Then flow cytometry is used for sorting the cells with high affinity to FcγRIIB for two to three rounds. […] IgG2_C01 is a combined mutation (Type I) library having at most 1 mutation in each of the four regions of P233-V240, V266-P271, S298-T299, and G327-I332; IgG2_C02 is a cell library made by combining the combined mutation (Type II) libraries of four regions of P233-V240, V266-P271, S298-T299 and G327-I332 together and transferring it into 3T3 cells.

| Molecule | enrichment factor, percentage after 2nd sorting/percentage after 1st sorting [1] | enrichment factor, percentage after 3rd sorting/percentage after 2nd sorting [1] | percentage after 1st sorting [1] [%] | percentage after 2nd sorting [1] [%] | percentage after 3rd sorting [1] [%] | Enrichment factor (percentage after sorting/percentage before sorting) [2] | Increased factor (enrichment factor/wild-type enrichment factor) [2] | further results |
| --- | --- | --- | --- | --- | --- | --- | --- | --- |
| human IgG2 anti-mouse CD40 surface displayed antibody, V234M/S267E/S298G/I332L | 64.4 | 0.66 | 0.01 | 0.46 | 0.3 |  |  | enrichment factor, percentage after 1st sorting/percentage before sorting [1]: 16.5; enrichment factor, percentage after 3rd sorting/percentage before sorting [1]: 695; increased factor, mutant enrichment factor/wild-type enrichment factor [1]: 1850; percentage before sorting [1]: 0% |
| human IgG2 anti-mouse CD40 surface displayed antibody, V234M/S267E/S298L/L328W |  | 5.13 |  | 0.1 | 0.53 |  |  |  |
| human IgG2 anti-mouse CD40 surface displayed antibody, A235W/V266L/S298L/L328W | 70.1 | 4.67 | 0 | 0.05 | 0.22 |  |  |  |
| human IgG2 anti-mouse CD40 surface displayed antibody, P233F/V266L/S298L/L328W | 94.7 | 1.79 | 0 | 0.16 | 0.29 |  |  |  |
| human IgG2 anti-mouse CD40 surface displayed antibody, G327A (antibody, name in EU numbering, m1 with this Fc mutation (Eu numbering); copies: 2 + 2) light chain (with the P2A rest): DTVLTQSPALAVSPGERVTISCRASDSVSTLMHWYQQKPGQQPKLLIYLASHLESGVPARFSGSGSGTDFTLTIDPVEADDTATYYCQQSWNDPWTFGGGTKLELKRTVAAPSVFIFPPSDEQLKSGTASVVCLLNNFYPREAKVQWKVDNALQSGNSQESVTEQDSKDSTYSLSSTLTLSKADYEKHKVYACEVTHQGLSSPVTKSFNRGECGSGATNFSLLKQAGDVEENPG heavy chain: EVQLVESDGGLVQPGRSLKLPCAASGFTFSDYYMAWVRQAPTKGLEWVASISYDGSSTYYRDSVKGRFTISRDNAKSTLYLQMDSLRSEDTATYYCGRHSSYFDYWGQGVMVTVSSASTKGPSVFPLAPCSRSTSESTAALGCLVKDYFPEPVTVSWNSGALTSGVHTFPAVLQSSGLYSLSSVVTVPSSNFGTQTYTCNVDHKPSNTKVDKTVERKCCVECPPCPAPPVAGPSVFLFPPKPKDTLMISRTPEVTCVVVDVSHEDPEVQFNWYVDGVEVHNAKTKPREEQFNSTFRVVSVLTVVHQDWLNGKEYKCKVSNKALPAPIEKTISKTKGQPREPQVYTLPPSREEMTKNQVSLTCLVKGFYPSDIAVEWESNGQPENNYKTTPPMLDSDGSFFLYSKLTVDKSRWQQGNVFSCSVMHEALHNHYTQKSLSLSPGKLEPPPSTVSNMATVAVLVVLGAAIVTGAVVAFVMKMRRRNTGGKGGDYALAPGSQTSDLSLPDCKVMVHDPHSLA |  |  |  |  |  | 5.05 | 3.38 |  |
| human IgG2 anti-mouse CD40 surface displayed antibody, G327A/A330V (antibody, name in EU numbering, m1 with these Fc mutations (Eu numbering); copies: 2 + 2) light chain (with the P2A rest): DTVLTQSPALAVSPGERVTISCRASDSVSTLMHWYQQKPGQQPKLLIYLASHLESGVPARFSGSGSGTDFTLTIDPVEADDTATYYCQQSWNDPWTFGGGTKLELKRTVAAPSVFIFPPSDEQLKSGTASVVCLLNNFYPREAKVQWKVDNALQSGNSQESVTEQDSKDSTYSLSSTLTLSKADYEKHKVYACEVTHQGLSSPVTKSFNRGECGSGATNFSLLKQAGDVEENPG heavy chain: EVQLVESDGGLVQPGRSLKLPCAASGFTFSDYYMAWVRQAPTKGLEWVASISYDGSSTYYRDSVKGRFTISRDNAKSTLYLQMDSLRSEDTATYYCGRHSSYFDYWGQGVMVTVSSASTKGPSVFPLAPCSRSTSESTAALGCLVKDYFPEPVTVSWNSGALTSGVHTFPAVLQSSGLYSLSSVVTVPSSNFGTQTYTCNVDHKPSNTKVDKTVERKCCVECPPCPAPPVAGPSVFLFPPKPKDTLMISRTPEVTCVVVDVSHEDPEVQFNWYVDGVEVHNAKTKPREEQFNSTFRVVSVLTVVHQDWLNGKEYKCKVSNKALPVPIEKTISKTKGQPREPQVYTLPPSREEMTKNQVSLTCLVKGFYPSDIAVEWESNGQPENNYKTTPPMLDSDGSFFLYSKLTVDKSRWQQGNVFSCSVMHEALHNHYTQKSLSLSPGKLEPPPSTVSNMATVAVLVVLGAAIVTGAVVAFVMKMRRRNTGGKGGDYALAPGSQTSDLSLPDCKVMVHDPHSLA |  |  |  |  |  | 6.98 | 4.67 |  |
| human IgG2 anti-mouse CD40 surface displayed antibody, G327A/A330R (antibody, name in EU numbering, m1 with these Fc mutations (Eu numbering); copies: 2 + 2) light chain (with the P2A rest): DTVLTQSPALAVSPGERVTISCRASDSVSTLMHWYQQKPGQQPKLLIYLASHLESGVPARFSGSGSGTDFTLTIDPVEADDTATYYCQQSWNDPWTFGGGTKLELKRTVAAPSVFIFPPSDEQLKSGTASVVCLLNNFYPREAKVQWKVDNALQSGNSQESVTEQDSKDSTYSLSSTLTLSKADYEKHKVYACEVTHQGLSSPVTKSFNRGECGSGATNFSLLKQAGDVEENPG heavy chain: EVQLVESDGGLVQPGRSLKLPCAASGFTFSDYYMAWVRQAPTKGLEWVASISYDGSSTYYRDSVKGRFTISRDNAKSTLYLQMDSLRSEDTATYYCGRHSSYFDYWGQGVMVTVSSASTKGPSVFPLAPCSRSTSESTAALGCLVKDYFPEPVTVSWNSGALTSGVHTFPAVLQSSGLYSLSSVVTVPSSNFGTQTYTCNVDHKPSNTKVDKTVERKCCVECPPCPAPPVAGPSVFLFPPKPKDTLMISRTPEVTCVVVDVSHEDPEVQFNWYVDGVEVHNAKTKPREEQFNSTFRVVSVLTVVHQDWLNGKEYKCKVSNKALPRPIEKTISKTKGQPREPQVYTLPPSREEMTKNQVSLTCLVKGFYPSDIAVEWESNGQPENNYKTTPPMLDSDGSFFLYSKLTVDKSRWQQGNVFSCSVMHEALHNHYTQKSLSLSPGKLEPPPSTVSNMATVAVLVVLGAAIVTGAVVAFVMKMRRRNTGGKGGDYALAPGSQTSDLSLPDCKVMVHDPHSLA |  |  |  |  |  | 98.3 | 65.8 |  |
| human IgG2 anti-mouse CD40 surface displayed antibody, P233G/S267E/S298G (antibody, As m1 with the Fc mutations; copies: 2 + 2) light chain (with the P2A rest): DTVLTQSPALAVSPGERVTISCRASDSVSTLMHWYQQKPGQQPKLLIYLASHLESGVPARFSGSGSGTDFTLTIDPVEADDTATYYCQQSWNDPWTFGGGTKLELKRTVAAPSVFIFPPSDEQLKSGTASVVCLLNNFYPREAKVQWKVDNALQSGNSQESVTEQDSKDSTYSLSSTLTLSKADYEKHKVYACEVTHQGLSSPVTKSFNRGECGSGATNFSLLKQAGDVEENPG heavy: EVQLVESDGGLVQPGRSLKLPCAASGFTFSDYYMAWVRQAPTKGLEWVASISYDGSSTYYRDSVKGRFTISRDNAKSTLYLQMDSLRSEDTATYYCGRHSSYFDYWGQGVMVTVSSASTKGPSVFPLAPCSRSTSESTAALGCLVKDYFPEPVTVSWNSGALTSGVHTFPAVLQSSGLYSLSSVVTVPSSNFGTQTYTCNVDHKPSNTKVDKTVERKCCVECPPCPAPGVAGPSVFLFPPKPKDTLMISRTPEVTCVVVDVEHEDPEVQFNWYVDGVEVHNAKTKPREEQFNGTFRVVSVLTVVHQDWLNGKEYKCKVSNKGLPAPIEKTISKTKGQPREPQVYTLPPSREEMTKNQVSLTCLVKGFYPSDIAVEWESNGQPENNYKTTPPMLDSDGSFFLYSKLTVDKSRWQQGNVFSCSVMHEALHNHYTQKSLSLSPGKLEPPPSTVSNMATVAVLVVLGAAIVTGAVVAFVMKMRRRNTGGKGGDYALAPGSQTSDLSLPDCKVMVHDPHSLA |  |  |  |  |  |  |  | enrichment factor, percentage after 1st sorting/percentage before sorting [3]: 7.13 ratio; enrichment factor, percentage after 2nd sorting/percentage after 1st sorting [3]: 38.5 ratio; enrichment factor, percentage after 2nd sorting/percentage before sorting [3]: 274 ratio; increased factor, mutant enrichment factor/wild-type enrichment factor [3]: 323 ratio; percentage after 1st sorting [3]: 0.01%; percentage after 2nd sorting [3]: 0.2% |
| human IgG2 anti-mouse CD40 surface displayed antibody, S267E/A330S (antibody, name in EU numbering, As m1 with the Fc mutations) light chain (with the P2A rest): DTVLTQSPALAVSPGERVTISCRASDSVSTLMHWYQQKPGQQPKLLIYLASHLESGVPARFSGSGSGTDFTLTIDPVEADDTATYYCQQSWNDPWTFGGGTKLELKRTVAAPSVFIFPPSDEQLKSGTASVVCLLNNFYPREAKVQWKVDNALQSGNSQESVTEQDSKDSTYSLSSTLTLSKADYEKHKVYACEVTHQGLSSPVTKSFNRGECGSGATNFSLLKQAGDVEENPG heavy chain: EVQLVESDGGLVQPGRSLKLPCAASGFTFSDYYMAWVRQAPTKGLEWVASISYDGSSTYYRDSVKGRFTISRDNAKSTLYLQMDSLRSEDTATYYCGRHSSYFDYWGQGVMVTVSSASTKGPSVFPLAPCSRSTSESTAALGCLVKDYFPEPVTVSWNSGALTSGVHTFPAVLQSSGLYSLSSVVTVPSSNFGTQTYTCNVDHKPSNTKVDKTVERKCCVECPPCPAPPVAGPSVFLFPPKPKDTLMISRTPEVTCVVVDVEHEDPEVQFNWYVDGVEVHNAKTKPREEQFNSTFRVVSVLTVVHQDWLNGKEYKCKVSNKGLPSPIEKTISKTKGQPREPQVYTLPPSREEMTKNQVSLTCLVKGFYPSDIAVEWESNGQPENNYKTTPPMLDSDGSFFLYSKLTVDKSRWQQGNVFSCSVMHEALHNHYTQKSLSLSPGKLEPPPSTVSNMATVAVLVVLGAAIVTGAVVAFVMKMRRRNTGGKGGDYALAPGSQTSDLSLPDCKVMVHDPHSLA |  |  |  |  |  |  |  | enrichment factor, percentage after 2nd sorting/percentage after 1st sorting [3]: 43.1 ratio; percentage after 1st sorting [3]: 0%; percentage after 2nd sorting [3]: 0.03% |
